Measured values reported in publication PMC3464217 (2012).

B1: 7B2 (antibody, V domains shown)
VH: QVQLVQSGGGVFKPGGSLRLSCEASGFTFTEYYMTWVRQAPGKGLEWLAYISKNGEYSKYSPSSNGRFTISRDNAKNSVFLQLDRLSADDTAVYYCARADGLTYFSELLQYIFDLWGQGARVTVSS
VL: DIVMTQSPDSLAVSPGERATIHCKSSQTLLYSSNNRHSIAWYQQRPGQPPKLLLYWASMRLSGVPDRFSGSGSGTDFTLTINNLQAEDVAIYYCHQYSSHPPTFGHGTRVELR
B2: HY (antibody, V domains shown)
VH: QVQLEQSGAEVKKPGASVKVSCQASGYRFSHFTVHWVRQAPGQRFEWMGWINPYNGNKEFSAKFQDRVTFTADTSANTAYMELRSLRSADTAVYYCARVGEWGWDDSPYDNYYMDVWGKGTTVIVSS
VL: EIVLTQSPGTLSLSPGERATFSCRSSHSIRSRRVAWYQHKPGQAPRLVIHGVSNRASGISDRFSGSGSGTDFTLTITRVEPEDFALYYCQVYGASSYTFGQGTKLERK

Legend:
Assay in all cases: SPR
recombinant gp160 [1] = molecular target: T1, recombinant gp160 (HIV (IIIB or MN/LAI))
recombinant gp160 [2] = molecular target: T1, recombinant gp160; remark: listed apart in the source
recombinant gp160 [3] = molecular target: T1, recombinant gp160; remark: listed apart in the source

Binder | Ka (recombinant gp160 [1]) [M⁻¹] | koff (recombinant gp160 [2]) [s⁻¹] | Kd (recombinant gp160 [3]) [µM]
B1 | 3.4e+09 | 4.9e-05 | 0.00031
B2 | 2.7e+06 | 0.018 | 0.37
